Data taken from article PMC3646564 (Cell, 2013).

Key:
[1] = biological target: D. radiodurans PNPase lacking the KH domain (D. radiodurans) (UniProt Q9RSR1); assay: native gel or EMSA + other: negative stain electron microscopy
[2] = biological target: D. radiodurans PNPase lacking the S1 domain (D. radiodurans) (UniProt Q9RSR1); assay: as above
[3] = biological target: the molecule itself; assay: glycerol gradient sedimentation

“D. radiodurans PNPase lacking the KH domain (from UniProt Q9RSR1 1-779) (enzyme)” was tested, and the stoichiometry N [1] was 3.

In the case of “D. radiodurans PNPase lacking the S1 domain (from UniProt Q9RSR1 1-779) (enzyme)”, the stoichiometry N [2] is reported as 3.

B1: Salmonella Typhimurium PNPase fused to 3 copies of FLAG (FLAG3-pnp) (enzyme, S. Typhimurium, UniProt Q8ZLT3 1-711, looked up)
chain: MLNPIVRKFQYGQHTVTLETGMMARQATAAVMVSMDDTAVFVTVVGQKKAKPGQDFFPLTVNYQERTYAAGRIPGSFFRREGRPSEGETLIARLIDRPVRPLFPEGFVNEVQVIATVVSVNPQVNPDIVAMIGASAALSLSGIPFNGPIGAARVGYINDQYVLNPTQDELKESKLDLVVAGTEAAVLMVESEAELLSEDTMLGAVVFGHEQQQVVIQAINDLVKEAGKPRWDWQPEAVNDALNARVAALAESRLSDAYRITDKQERYAQVDVIKSETIEQLIAEDETLDANELGEILHAIEKNVVRSRVLAGEPRIDGREKDMIRGLDVRTGVLPRTHGSALFTRGETQALVTATLGTARDAQVLDELMGERTDSFLFHYNFPPYSVGETGMVGSPKRREIGHGRLAKRGVLAVMPDMDKFPYTVRVVSEITESNGSSSMASVCGASLALMDAGVPIKAAVAGIAMGLVKEGDNYVVLSDILGDEDHLGDMDFKVAGSRDGISALQMDIKIEGITKEIMQVALNQAKGARLHILGVMEQAINAPRGDISEFAPRIHTIKISTDKIKDVIGKGGSVIRALTEETGTTIEIEDDGTVKIAATDGEKAKYAIRRIEEITAEIEVGRIYNGKVTRIVDFGAFVAIGGGKEGLVHISQIADKRVEKVTDYLQMGQEVPVKVLEVDRQGRVRLSIKEATEQSQPAAAPEAPASEQAE
For B1, the “stoichiometry N” value [3] was 3.
